Patent US20230134571A1 (INTERNATIONAL AIDS VACCINE INITIATIVE, published 2023)
Changes are numbered by the printed parent chain.

Experiments:
Assay in all cases: cell-based or functional assay
[1] = biological target: HIV Env, isolate 6240_08_TA5_4622 (HIV)
HIV Env, isolate CNE52 = HIV Env, isolate CNE52 (HIV)
[2] = biological target: HIV Env, isolate AC10.0.29 (HIV)
[3] = biological target: HIV Env, isolate ZM135M.PL10a (HIV)
[4] = biological target: HIV Env, isolate HIV-0013095-2.11 (HIV)
[5] = biological target: HIV Env, isolate HIV-16055-2.3 (HIV)
[6] = biological target: HIV Env, isolate WITO4160.33 (HIV)
[7] = biological target: HIV Env, isolate SC422661.8 (HIV)
HIV Env, isolate CNE21 = HIV Env, isolate CNE21 (HIV)
[8] = biological target: HIV Env, isolate CAP45.2.00.G3 (HIV)
[9] = biological target: HIV Env, isolate WEAU_d15_410_5017 (HIV)
[10] = biological target: HIV Env, isolate Ce2010_F5 (HIV)
[11] = biological target: HIV Env, isolate 1012_11_TC21_3257 (HIV)
[12] = biological target: HIV Env, isolate ZM249M.PL1 (HIV)
[13] = biological target: HIV Env, isolate 3817.v2.c59 (HIV)
HIV Env, isolate TRO.11 = HIV Env, isolate TRO.11 (HIV)
[14] = biological target: HIV Env of isolate 191084B7-19 (clade A) (HIV)
[15] = biological target: HIV Env of isolate 246FC1G (clade C) (HIV)
[16] = biological target: HIV Env of isolate CNE20 (clade BC) (HIV)
[17] = biological target: HIV Env of isolate Q769.d22 (clade A) (HIV)
[18] = biological target: HIV Env of isolate 6545.v4.c1 (clade AC) (HIV)
[19] = biological target: HIV Env of isolate 231965.c01 (clade D) (HIV)
[20] = biological target: HIV Env of isolate BJOX010000.06.2 (clade AE) (HIV)
[21] = biological target: HIV Env of isolate Ce1176_A3 (clade C) (HIV)
[22] = biological target: HIV Env of isolate CNE5 (clade AE) (HIV)
[23] = biological target: HIV Env of isolate 3817.v2.c59 (clade CD) (HIV)
[24] = biological target: HIV Env of isolate Du422.1 (clade C) (HIV)
[25] = biological target: HIV Env of isolate CNE21 (clade BC) (HIV)
[26] = biological target: HIV Env of isolate TRO.11 (clade B) (HIV)
[27] = biological target: HIV Env of isolate ZM197M.PB7 (clade C) (HIV)
[28] = biological target: HIV Env of isolate Ce2060_G9 (clade C) (HIV)
[29] = biological target: HIV Env of isolate Ce2010_F5 (clade C) (HIV)
[30] = biological target: HIV Env of isolate Q259.d2.17 (clade A) (HIV)
[31] = biological target: HIV Env of isolate ZM135M.PL10a (clade C) (HIV)
[32] = biological target: HIV Env of isolate T250-4 a.k.a. CRF250 (clade AG) (HIV)
[33] = biological target: HIV Env of isolate 6041.v3.c23 (clade AC) (HIV)
[34] = biological target: HIV Env of isolate 6811.v7.c18 (clade CD) (HIV)
[35] = biological target: HIV Env of isolate Ce0393_C3 (clade C) (HIV)
[36] = biological target: HIV Env of isolate Ce0682_E4 (clade C) (HIV)
[37] = biological target: HIV Env of isolate REJO4541.67 (clade B) (HIV)
[38] = biological target: HIV Env of isolate 191955_A11 (clade A) (HIV)

B1: ePGDM5 (antibody, V domains shown)
VH: QAQLVQSGPEVRKPGTSVKVSCKNPGNTLTTYDLHWVRQVPGQGLQWMGWISHEGDKKVIVERFKAKVTIDWDRSTNTAYLQLSGLTSEDTAVYYCAKGSKHRLRDYALYDEDGALNWAVDVDYLANLEFWGQGTAVTVSS
VL: DFVLTQSPLSLSVTPGESASISCKSDHSLQHGDRNNYLAWYVQKPGRSPQLLIDLASERASGVPDRFSGSGSRKDFTLKIDRVEAEDVGTYYCMQGRESPWTFGQGTKVDIK
IC80 (µg/ml) with constrains [1]: 8.09 µg/mL
IC80 (µg/ml) with constrains (HIV Env, isolate CNE52): 24.6 µg/mL
IC80 (µg/ml) with constrains [2]: 1.1 µg/mL
IC80 (µg/ml) with constrains [3]: > 100 µg/mL
IC80 (µg/ml) with constrains [4]: > 100 µg/mL
IC80 (µg/ml) with constrains [5]: 0.007 µg/mL
IC80 (µg/ml) with constrains [6]: 0.015 µg/mL
IC80 (µg/ml) with constrains [7]: 5.33 µg/mL
IC80 (µg/ml) with constrains (HIV Env, isolate CNE21): 0.007 µg/mL
IC80 (µg/ml) with constrains [8]: 0.004 µg/mL
IC80 (µg/ml) with constrains [9]: 0.003 µg/mL
IC80 (µg/ml) with constrains [10]: > 100 µg/mL
IC80 (µg/ml) with constrains [11]: 0.305 µg/mL
IC80 (µg/ml) with constrains [12]: 0.138 µg/mL
IC80 (µg/ml) with constrains [13]: 0.929 µg/mL
IC80 (µg/ml) with constrains (HIV Env, isolate TRO.11): 1.26 µg/mL

B2: ePGDM13 (antibody, V domains shown)
VH: B1 VH
VL: B1 VL with F2I, D26S, I53L, R73E, D81S, A85T
IC80 (µg/ml) with constrains [1]: 12.6 µg/mL
IC80 (µg/ml) with constrains (HIV Env, isolate CNE52): 11.3 µg/mL
IC80 (µg/ml) with constrains [2]: 0.776 µg/mL
IC80 (µg/ml) with constrains [3]: > 100 µg/mL
IC80 (µg/ml) with constrains [4]: > 100 µg/mL
IC80 (µg/ml) with constrains [5]: 0.011 µg/mL
IC80 (µg/ml) with constrains [6]: 0.013 µg/mL
IC80 (µg/ml) with constrains [7]: 6.26 µg/mL
IC80 (µg/ml) with constrains (HIV Env, isolate CNE21): 0.006 µg/mL
IC80 (µg/ml) with constrains [8]: 0.007 µg/mL
IC80 (µg/ml) with constrains [9]: 0.012 µg/mL
IC80 (µg/ml) with constrains [10]: > 100 µg/mL
IC80 (µg/ml) with constrains [11]: 0.26 µg/mL
IC80 (µg/ml) with constrains [12]: 0.056 µg/mL
IC80 (µg/ml) with constrains [13]: 55.9 µg/mL
IC80 (µg/ml) with constrains (HIV Env, isolate TRO.11): 1.41 µg/mL

B3: PGDM1400 (antibody, V domains shown)
VH: B1 VH with A2V, Q3H, V5T, N24A, T30K, Q39S, E89G, E112D, A126S
VL: B1 VL with L9H, D26S, Q30I, D54Y, E58S, R73D, D81S, A85T
IC50 (µg/ml) with constrains [14]: 0.002 µg/mL
IC80 (µg/ml) with constrains [14]: 0.008 µg/mL
IC50 (µg/ml) with constrains [15]: > 100 µg/mL
IC50 (µg/ml) with constrains [16]: 0.005 µg/mL
IC50 (µg/ml) with constrains [17]: 0.007 µg/mL
IC80 (µg/ml) with constrains [17]: 0.028 µg/mL
IC50 (µg/ml) with constrains [18]: 0.148 µg/mL
IC80 (µg/ml) with constrains [18]: 0.594 µg/mL
IC50 (µg/ml) with constrains [19]: 0.061 µg/mL
IC50 (µg/ml) with constrains [20]: 0.871 µg/mL
IC80 (µg/ml) with constrains [20]: 3.48 µg/mL
IC50 (µg/ml) with constrains [21]: 0.526 µg/mL
IC50 (µg/ml) with constrains [22]: 0.001 µg/mL
IC80 (µg/ml) with constrains [22]: 0.003 µg/mL
IC50 (µg/ml) with constrains [23]: > 100 µg/mL
IC50 (µg/ml) with constrains [24]: 33.4 µg/mL
IC50 (µg/ml) with constrains [25]: 0.003 µg/mL
IC50 (µg/ml) with constrains [26]: 0.206 µg/mL
IC50 (µg/ml) with constrains [27]: 0.071 µg/mL
IC50 (µg/ml) with constrains [28]: 0.025 µg/mL
IC50 (µg/ml) with constrains [29]: > 100 µg/mL
IC50 (µg/ml) with constrains [30]: 0.068 µg/mL
IC80 (µg/ml) with constrains [30]: 0.271 µg/mL
IC50 (µg/ml) with constrains [31]: > 100 µg/mL
IC50 (µg/ml) with constrains [32]: 0.28 µg/mL
IC80 (µg/ml) with constrains [32]: 1.12 µg/mL
IC50 (µg/ml) with constrains [33]: 0.016 µg/mL
IC80 (µg/ml) with constrains [33]: 0.064 µg/mL
IC50 (µg/ml) with constrains [34]: > 100 µg/mL
IC50 (µg/ml) with constrains [35]: 0.009 µg/mL
IC50 (µg/ml) with constrains [36]: 0.009 µg/mL
IC50 (µg/ml) with constrains [37]: 0.004 µg/mL
IC50 (µg/ml) with constrains [38]: 0.013 µg/mL
IC80 (µg/ml) with constrains [38]: 0.05 µg/mL
